# In paper PMC7954794 (2021):
# B1: S. cerevisiae Abp1 (full length; SH3 domain 535-592 mutated) / Hua2 (parent complex)
# chain 1: MALEPIDYTTHSREIDAEYLKIVRGSDPDTTWLIISPNAKKEYEPESTGSSFHDFLQLFDETKVQYGLARVSPPGSDVEKIIIIGWCPDSAPLKTRASFAANFAAVANNLFKGYHVQVTARDEDDLDENELLMKISNAAGARYSIQTSSKQQGKASTPPVKKSFTPSKSPAPVSKKEPVKTPSPAPAAKISSRVNDNNDDDDWNEPELKERDFDQAPLKPNQSSYKPIGKIDLQKVIAEEKAKEDPRLVQKPTAAGSKIDPSSDIANLKNESKLKRDSEFNSFLGTTKPPSMTESSLKNDDDKVIKGFRNEKSPAQLWAERKAKQNSGNAETKAEAPKPEVPEDEPEGEPDVKDLKSKFEGLAASEKEEEEMENKFAPPPKKSEPTIISPKPFSKPQEPVKAEEAEQPKTDYKKIGNPLPGMHIEADNEEEPEENDDDWDDDEDEAAQPPLPSRNVASGAPVQKEEPEQEEIAPSLPSRNSIPAPKQEEAPEQAPEEEIEEEAEEAAPQLPSRSSAAPPPPPRRATPEKKPKENPWATAEYDYDAAEDNELTFVENDKIINIEFVDDDWWLGELEKDGSKGLFPSNYVSLGN
# chain 2: MQQTKFGKMYLDHDSVVEYSEDEIVEADRITLGYKKRLSMIENQMRHLLEDFSLDVQQIEPILADLQKYYDAFLQLLQKRNKSLQCKRSTHQPVPSPMNSQTSTNAKVNLSGKLMKFQLNSVQKFDEENILRILQNKIEFEHYFQIDKGKKQKVLLLAVYQCLNGPTRLHKVLNIEGIIHNNSIRTILGKQVSSSKWTVFLYDVKLVLLAHRQDVPNLETSKMIVRYGDLFPCALYFKDHTAY
# Variants of: B1
# Assay: DHFR protein-fragment complementation in yeast (Abp1-DHFR F[1,2] x partner-DHFR F[3]), deep mutational scanning, second methotrexate selection vs reference; S. cerevisiae, DHFR-PCA selection in liquid with methotrexate at 30 C, two 72 h selections (the score uses the second); reference = the pre-selection culture
row,Variant,screen value
1,chain 1 MALEPIDYTTHSREIDAEYLKIVRGSDPDTTWLIISPNAKKEYEPESTGSSFHDFLQLFDETKVQYGLARVSPPGSDVEKIIIIGWCPDSAPLKTRASFAANFAAVANNLFKGYHVQVTARDEDDLDENELLMKISNAAGARYSIQTSSKQQGKASTPPVKKSFTPSKSPAPVSKKEPVKTPSPAPAAKISSRVNDNNDDDDWNEPELKERDFDQAPLKPNQSSYKPIGKIDLQKVIAEEKAKEDPRLVQKPTAAGSKIDPSSDIANLKNESKLKRDSEFNSFLGTTKPPSMTESSLKNDDDKVIKGFRNEKSPAQLWAERKAKQNSGNAETKAEAPKPEVPEDEPEGEPDVKDLKSKFEGLAASEKEEEEMENKFAPPPKKSEPTIISPKPFSKPQEPVKAEEAEQPKTDYKKIGNPLPGMHIEADNEEEPEENDDDWDDDEDEAAQPPLPSRNVASGAPVQKEEPEQEEIAPSLPSRNSIPAPKQEEAPEQAPEEEIEEEAEEAAPQLPSRSSAAPPPPPRRATPEKKPKENPWATAEYDYDAAEDNELTFVENDKIINIEFVDDDWWLGELEKDGSKGLFPSNYVSLGT [chain 1 N592T],"0.35 DMS score: mean over two replicates of log2(f_test/f_ref + 0.5)/ln 2, minus the synonymous-codon median (not a log2 …"
2,chain 1 MALEPIDYTTHSREIDAEYLKIVRGSDPDTTWLIISPNAKKEYEPESTGSSFHDFLQLFDETKVQYGLARVSPPGSDVEKIIIIGWCPDSAPLKTRASFAANFAAVANNLFKGYHVQVTARDEDDLDENELLMKISNAAGARYSIQTSSKQQGKASTPPVKKSFTPSKSPAPVSKKEPVKTPSPAPAAKISSRVNDNNDDDDWNEPELKERDFDQAPLKPNQSSYKPIGKIDLQKVIAEEKAKEDPRLVQKPTAAGSKIDPSSDIANLKNESKLKRDSEFNSFLGTTKPPSMTESSLKNDDDKVIKGFRNEKSPAQLWAERKAKQNSGNAETKAEAPKPEVPEDEPEGEPDVKDLKSKFEGLAASEKEEEEMENKFAPPPKKSEPTIISPKPFSKPQEPVKAEEAEQPKTDYKKIGNPLPGMHIEADNEEEPEENDDDWDDDEDEAAQPPLPSRNVASGAPVQKEEPEQEEIAPSLPSRNSIPAPKQEEAPEQAPEEEIEEEAEEAAPQLPSRSSAAPPPPPRRATPEKKPKENPWATAEYDYDAAEDNELTFVENDKIINIEFVGDDWWLGELEKDGSKGLFPSNYVSLGN [chain 1 D566G],"-2.66 DMS score: mean over two replicates of log2(f_test/f_ref + 0.5)/ln 2, minus the synonymous-codon median (not a log2 …"
3,chain 1 MALEPIDYTTHSREIDAEYLKIVRGSDPDTTWLIISPNAKKEYEPESTGSSFHDFLQLFDETKVQYGLARVSPPGSDVEKIIIIGWCPDSAPLKTRASFAANFAAVANNLFKGYHVQVTARDEDDLDENELLMKISNAAGARYSIQTSSKQQGKASTPPVKKSFTPSKSPAPVSKKEPVKTPSPAPAAKISSRVNDNNDDDDWNEPELKERDFDQAPLKPNQSSYKPIGKIDLQKVIAEEKAKEDPRLVQKPTAAGSKIDPSSDIANLKNESKLKRDSEFNSFLGTTKPPSMTESSLKNDDDKVIKGFRNEKSPAQLWAERKAKQNSGNAETKAEAPKPEVPEDEPEGEPDVKDLKSKFEGLAASEKEEEEMENKFAPPPKKSEPTIISPKPFSKPQEPVKAEEAEQPKTDYKKIGNPLPGMHIEADNEEEPEENDDDWDDDEDEAAQPPLPSRNVASGAPVQKEEPEQEEIAPSLPSRNSIPAPKQEEAPEQAPEEEIEEEAEEAAPQLPSRSSAAPPPPPRRATPEKKPKENPWATAEYDYDAAEDNELTFVPNDKIINIEFVDDDWWLGELEKDGSKGLFPSNYVSLGN [chain 1 E555P],"-0.507 DMS score: mean over two replicates of log2(f_test/f_ref + 0.5)/ln 2, minus the synonymous-codon median (not a log2 …"
4,chain 1 MALEPIDYTTHSREIDAEYLKIVRGSDPDTTWLIISPNAKKEYEPESTGSSFHDFLQLFDETKVQYGLARVSPPGSDVEKIIIIGWCPDSAPLKTRASFAANFAAVANNLFKGYHVQVTARDEDDLDENELLMKISNAAGARYSIQTSSKQQGKASTPPVKKSFTPSKSPAPVSKKEPVKTPSPAPAAKISSRVNDNNDDDDWNEPELKERDFDQAPLKPNQSSYKPIGKIDLQKVIAEEKAKEDPRLVQKPTAAGSKIDPSSDIANLKNESKLKRDSEFNSFLGTTKPPSMTESSLKNDDDKVIKGFRNEKSPAQLWAERKAKQNSGNAETKAEAPKPEVPEDEPEGEPDVKDLKSKFEGLAASEKEEEEMENKFAPPPKKSEPTIISPKPFSKPQEPVKAEEAEQPKTDYKKIGNPLPGMHIEADNEEEPEENDDDWDDDEDEAAQPPLPSRNVASGAPVQKEEPEQEEIAPSLPSRNSIPAPKQEEAPEQAPEEEIEEEAEEAAPQLPSRSSAAPPPPPRRATPEKKPKENPWATAEYDYDAAEDNELTFVENDKIINIEFVDGDWWLGELEKDGSKGLFPSNYVSLGN [chain 1 D567G],"-2.86 DMS score: mean over two replicates of log2(f_test/f_ref + 0.5)/ln 2, minus the synonymous-codon median (not a log2 …"
5,chain 1 MALEPIDYTTHSREIDAEYLKIVRGSDPDTTWLIISPNAKKEYEPESTGSSFHDFLQLFDETKVQYGLARVSPPGSDVEKIIIIGWCPDSAPLKTRASFAANFAAVANNLFKGYHVQVTARDEDDLDENELLMKISNAAGARYSIQTSSKQQGKASTPPVKKSFTPSKSPAPVSKKEPVKTPSPAPAAKISSRVNDNNDDDDWNEPELKERDFDQAPLKPNQSSYKPIGKIDLQKVIAEEKAKEDPRLVQKPTAAGSKIDPSSDIANLKNESKLKRDSEFNSFLGTTKPPSMTESSLKNDDDKVIKGFRNEKSPAQLWAERKAKQNSGNAETKAEAPKPEVPEDEPEGEPDVKDLKSKFEGLAASEKEEEEMENKFAPPPKKSEPTIISPKPFSKPQEPVKAEEAEQPKTDYKKIGNPLPGMHIEADNEEEPEENDDDWDDDEDEAAQPPLPSRNVASGAPVQKEEPEQEEIAPSLPSRNSIPAPKQEEAPEQAPEEEIEEEAEEAAPQLPSRSSAAPPPPPRRATPEKKPKENPWATAEYDYDAAEDNELTFVENDKIINIEFVDDDWWQGELEKDGSKGLFPSNYVSLGN [chain 1 L571Q],"-0.179 DMS score: mean over two replicates of log2(f_test/f_ref + 0.5)/ln 2, minus the synonymous-codon median (not a log2 …"
